Drawing on PMC7580981 (2020), this text covers Kd for 2 molecules.

Assay [1] addresses IBV polymerase trimeric complex (Pol3): PA-His, PB1, PB2 (influenza B virus). Nature of the assay: SPR. On the technique in general: Surface plasmon resonance follows binding to a sensor surface in real time, without labels.
In assay [2] the target is two polymerase subunits (PA and PB1) of IBV polymerase (Pol2): PA-His, PB1 (influenza B virus). Nature of the assay: SPR.

Broadly, the Kd is the concentration at which binding is half-saturated. A low value points to higher affinity.

B1: human ANP32A C terminal truncated (huANP32A_165T), purified (GST cleaved) (domain or fragment)
chain: MEMGRRIHLELRNRTPSDVKELVLDNSRSNEGKLEGLTDEFEELEFLSTINVGLTSIANLPKLNKLKKLELSDNRVSGGLEVLAEKCPNLTHLNLSGNKIKDLSTIEPLKKLENLKSLDLFNCEVTNLNDYRENVFKLLPQLTYLDGYDRDDKEAPDSDAEGYVE
B1 yielded a Kd in assay [1] greater than 1000 µM.

B2: human ANP32A, purified (GST cleaved) (natural protein)
chain: MEMGRRIHLELRNRTPSDVKELVLDNSRSNEGKLEGLTDEFEELEFLSTINVGLTSIANLPKLNKLKKLELSDNRVSGGLEVLAEKCPNLTHLNLSGNKIKDLSTIEPLKKLENLKSLDLFNCEVTNLNDYRENVFKLLPQLTYLDGYDRDDKEAPDSDAEGYVEGLDDEEEDEDEEEYDEDAQVVEDEEDEDEEEEGEEEDVSGEEEEDEEGYNDGEVDDEEDEEELGEEERGQKRKREPEDEGEDDD
With B2, the equilibrium dissociation constant (Kd) in assay [2] was greater than 1000 µM.
